Laboratory results from IntAct's records for PubMed 17392269.

B1: Protein Pixie (Drosophila melanogaster (Fruit fly)), Q9VSS1 (parent)
chain: MSRRKENEEVDKQTRIAIVSDDKCKPKRCRQECKKTCPVVRMGKLCIEVTPTSKIASLSEELCIGCGICVKKCPFEAITIINLPSNLEKHTTHRYSKNSFKLHRLPIPRPGEVLGLVGQNGIGKSTALKILAGKQKPNLGKYANPPDWTEILSYFRGSELQNYFTKILEDNLKALVKPQYVDQIPKAVRGAVGDLLDKKDERELQTKICEMLDLSHIRDREIAQLSGGELQRFAIAMVCIQNADIFMFDEPSSYLDVKQRLNAALTIRSLLHPTKFIIVVEHDLSVLDYLSDFICCLYGVPGCYGVVTMPFSVREGINIFLDGFVPTENMRFRTESLTFKVSESATEEEIKRMNHYVYPAMVKTLGKFELTVEKGHFSDSEILVLLGENGTGKTTFIRMLAGNLQPDGEVELPMLNISYKPQKISPKFQNHVRHLLHDKIRDAYVHPQFIADVMKPMKIEEIMDQEVQNLSGGELQRVALVLCLGKPADVYLIDEPSAYLDSEQRLVAAKVIKRYILHAKKTGFVVEHDFIMATYLADRVIVIEGQPSVKTTAFSPQSLLNGMNRFLELLGITFRRDPNNFRPRINKNNSVKDTEQKRSGQFFFLEDEACN
partner: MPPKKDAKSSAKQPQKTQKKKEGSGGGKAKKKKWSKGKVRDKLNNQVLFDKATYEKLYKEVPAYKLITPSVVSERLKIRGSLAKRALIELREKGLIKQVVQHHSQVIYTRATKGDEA

Variants of: B1
Conditions: with rs25_drome RpS25, P48588

Row | effect of a mutation on the interaction | Variant
1 | increasing interaction | E503Q
